Literature values, collected in article PMC13142048.

Tests used:
[1] = target: CD226 (DNAM-1) (Homo sapiens) (UniProt Q15762)
[2] = target: CD96 (TACTILE) (Homo sapiens) (UniProt P40200)
[3] = target: TIGIT (Homo sapiens) (UniProt Q495A1)
Sequence of UniProt Q495A1 (Q495A1 22-141): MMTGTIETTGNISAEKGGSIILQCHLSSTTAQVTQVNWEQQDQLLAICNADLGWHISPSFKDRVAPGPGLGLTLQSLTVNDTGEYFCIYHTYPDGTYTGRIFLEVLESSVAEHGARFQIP

Sequence of UniProt Q15762 (Q15762 19-254): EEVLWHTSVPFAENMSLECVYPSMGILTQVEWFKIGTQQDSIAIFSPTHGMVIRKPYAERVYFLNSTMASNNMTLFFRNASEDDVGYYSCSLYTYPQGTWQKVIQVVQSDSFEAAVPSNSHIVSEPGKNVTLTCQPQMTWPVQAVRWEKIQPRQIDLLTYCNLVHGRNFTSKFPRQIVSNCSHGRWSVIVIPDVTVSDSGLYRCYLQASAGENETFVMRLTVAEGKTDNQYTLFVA
Sequence of UniProt P40200 (P40200 22-519): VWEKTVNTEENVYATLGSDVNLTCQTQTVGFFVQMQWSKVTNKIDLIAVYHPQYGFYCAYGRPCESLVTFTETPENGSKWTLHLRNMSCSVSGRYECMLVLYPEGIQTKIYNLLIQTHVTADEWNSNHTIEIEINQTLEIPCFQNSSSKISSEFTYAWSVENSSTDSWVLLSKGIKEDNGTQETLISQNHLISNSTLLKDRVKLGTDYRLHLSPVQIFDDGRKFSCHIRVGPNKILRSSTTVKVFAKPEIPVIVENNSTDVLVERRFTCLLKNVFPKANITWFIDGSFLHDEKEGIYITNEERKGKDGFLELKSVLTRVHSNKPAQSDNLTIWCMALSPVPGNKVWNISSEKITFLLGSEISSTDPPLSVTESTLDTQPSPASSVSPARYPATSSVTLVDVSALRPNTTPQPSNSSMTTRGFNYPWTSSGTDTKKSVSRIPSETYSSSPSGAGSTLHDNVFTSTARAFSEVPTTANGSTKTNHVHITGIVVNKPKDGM

**Q.** Which Kd [1] does the source give for CD155 (from UniProt P15151) here?
**A.** 0.119 µM

**Q.** What about the Kd [2] of the same substance?
**A.** 0.0376 µM

**Q.** What about the Kd [3] of the same substance?
**A.** 0.00315 µM
